{"source": "patent US20250026813A1", "about": "(published 2025)", "binders": {"B1": {"name": "IMPI-063 (antibody, V domains shown)", "VH": "EVQLVESGGGVVRPGGSLRLSCAASGFTFDDYGMSWVRQAPGKGLEWVSGIYWNGGSTGYADSVKGRFTISRDNAKNSLYLQMNSLRAEDMALYYCARGVGATDYWGQGTLVTVSS", "VL": "EIVLTQSPGTLSLSSGERATLACRASESVRGSFLAWYQQKPGQAPRLLIYGASRRATGIPDRFSGSGSGTDFTLTISRLEPEDFAVYYCQQYGNSPMCSFGQGTKLEIK"}, "B2": {"name": "IMPI-059 (antibody, V domains shown)", "VH": "EVQLVESGGGLIQPGGSLRLSCAASGFTVSSIYMSWVRQAPGKGLEWVSIIYSRGSTDYADSVKGRFTISRDISKNTLYLQMNSLRAEDTAVYYCARDGTMVRGVHAFDIWGQGTMVTVSS", "VL": "DIQMTQSPPSLSASIGDRVTITCQASQDISNYLNWYQQKPGKAPKLLIYDASNLETGVPSRFSGSGSGTDFTLTISNLQPEDIVTYYCQQYDNLPSSFGQGTKLEIK"}, "B3": {"name": "IMPI-054 (antibody, V domains shown)", "VH": "EVQLVESGGGLIQPGGSLRLSCAASGLTVSSNYMSWVRQAPGKGLEWVSIIYSGGSTYYADSVKGRFTISRDNSKNTLYLQMNSLRAEDTAVYYCARLGGYYYYGMDVWGQGTTVTVSS", "VL": "DIQMTQSPSSLSASVGERVTITCQASQDIRNYLNWYQKKPGKAPKLLIYDSSNLETGVPSRFSGSGSGTDFTFTISSLQPEDIATYYCQQYDNLPITFGQGTRLEIK"}, "B4": {"name": "IMPI-042 (antibody, V domains shown)", "VH": "B3 VH", "VL": "B3 VL with S65G"}, "B5": {"name": "IMPI-029 (antibody, V domains shown)", "VH": "EVQLVESGGGLIQPGGSLRLSCAASGVTVSSNYMNWVRQAPGKGLEWVSVIYSGGSTYYADSVKGRFTISRDNSKNTLFLQMNSLRAEDSAVYYCARDLGPYGVDVWGQGTTVTVSS", "VL": "DIQLTQSPSFLSASVGDRVTITCWASQGISSYLAWYQQKPGKAPKLLIYAASTLQSGVPSRFSGSGSGTEFTLTISSLQPEDFATYYCQELNSYPLTFGQGTRLEIK"}, "B6": {"name": "IMPI-037 (antibody, V domains shown)", "VH": "not shown", "VL": "B5 VL with S30N, A84T, E90Q, L91F, S93D, L96R, Q100P, R103K, L104V"}, "B7": {"name": "IMPI-047 (antibody, V domains shown)", "VH": "B5 VH with V27F, F79Y, A87T, S90T, G100V, P101A, V104M", "VL": "B5 VL with L46V, E90L, Y94N, Q100G, R103K, L104V"}, "B8": {"name": "IMPI-017 (antibody, V domains shown)", "VH": "B5 VH with S25A, V27L, A40V, F79Y, S90T, P101T, Y102L, V104M", "VL": "B5 VL with S31T, E90Q, P95L, L96P, R103K, L104V"}, "B9": {"name": "IMPI-005 (antibody, V domains shown)", "VH": "B5 VH with V27F", "VL": "B5 VL"}, "B10": {"name": "IMPI-060 (antibody, V domains shown)", "VH": "B5 VH with N35S, Y58F, F79Y, S90T, G100S, P101Y, V104M", "VL": "B5 VL with R61K, E90Q, L96S, T97S, R103K"}, "B11": {"name": "IMPI-021 (antibody, V domains shown)", "VH": "B5 VH with N35S, Y58F, F79Y, S90T, G100S, P101Y, V104M", "VL": "B5 VL with R61K, E90Q, L96C, T97S, R103K"}, "B12": {"name": "IMPI-006 (antibody, V domains shown)", "VH": "QLQLQESGPGLVKPSETLSLTCTVSGGSISNSNYYWGWIRQPPGKGLEWIGSIYYSGRTYYNPSLKSRVTISVDTSKNQFSLKLSSVTAADTAVYYCARMGLLWFGEFYGMDVWGQGTTVTVSS", "VL": "DIQMTQSPSSLSASVGDRVTITCRASQGISSWLAWYQQKPEKAPKSLIYDASSLQRGVPSRFSGSGSGTDFTLTISSLQPEDFASYYCQQYNSYPLTFGGGTRVEIK"}, "B13": {"name": "IMPI-032 (antibody, V domains shown)", "VH": "QVQLQESGPGLVKPSGTLSLTCAVSGGSISSNKWWSWVRQPPGKGLEWIGEIDHSGSTMYNPSLKSRVTISVDKSKNQFSLKLNSVTAADTAVYYCTGEGYNWNYWGQGTRVTVSS", "VL": "DVVMTQSPLSLPVTLGQTASISCRSSQSLLYTDGNTYLSWFQQRPGQSPRRLIYKVSKWESGVPDRFSGSGSGTDFTLKISRVEAEDVGIYYCMQGTHWPLTFGGGTKVEIK"}, "B14": {"name": "IMPI-024 (antibody, V domains shown)", "VH": "EVQLVQSGAEVKKPGESLKISCKGSGYSFTSYWIGWVRQMPGKGLEWMGIIYPGDSDTRYSPSFQGQVTISADKSISTAYLQWSSLKASDTAMYYCVRSYNWNYFDYWGQGTLVTVSS", "VL": "AIQLTQSPSSLSASVGDRVTITCRASQGISSGLAWYQQKAGKAPKLLIYDVSSLESGVPSRFSGSGSGTDFTLTISSLQPEDFATYYCQQFLSYPWTFGQGTKVEIK"}, "B15": {"name": "IMPI-027 (antibody, V domains shown)", "VH": "QVQLQESGPGLVKPSQTLSLTCTVSGGSISSYGYYWNWIRQHPGKGLEWIGYIYYSGSTYYNPSLKSRVTISVDTSKNQLSLRLNSVSAADTAVYYCARDFGGNSNYFDYWGQGTLVTVSS", "VL": "B14 VL with A25T, G32A, A40P, V51A, L92N, W96L, Q100G"}, "B16": {"name": "IMPI-022 (antibody, V domains shown)", "VH": "EVQLVESGGGLVQPGRSLRLSCAASGFTFDDYAMHWVRQAPGKGLEWVSGITWNSGSIGYADSVKGRFTISRDNAKNSLYLHMNSLRVEDTALYYCAKDLQGDYYYYGVDVWGQGTTVTVSS", "VL": "B14 VL with G32A, A40P, I48L, V51A, E55V, G66R, L92I, W96L, Q100G, K103R"}, "B17": {"name": "IMPI-033 (antibody, V domains shown)", "VH": "B15 VH with N37S, I71M", "VL": "B14 VL with G32A, A40P, K45N, V51A, L92N, Y94S, W96L, Q100G"}, "B18": {"name": "IMPI-055 (antibody, V domains shown)", "VH": "QVQLVQSGAEVKKPGASVKVSCKASGYTFTSYDINWVRQATGQGLEWMGWMNPNSGNTGYAQKFQGRVTMTRDTSINTAYMELSSLRSEDTAVYFCARGGRYCSDVTCYSGEPFDYWGQGTLVTVSS", "VL": "EIMLTQSPDFQSVTPKEKVTITCRASQSIGSSLHWYQQKPDQSPKLLIKFASQSISGVPSRFSGSGSGTDFTLTINSLEAEDAAAYYCHQSSSLPHTFGPGTKVEIK"}, "B19": {"name": "YANG-2305 (antibody, V domains shown)", "VH": "QVQLVESGGGVVQPGRSLRLSCAASGFTFSSYGMHWVRQAPGKGLEWVAIIWYDGSKKYYADSVKGRFTISRDNSKNTLNLQMNSLRAEDTAVYYCAREEDIVASGGLYYNFNGMDVWGQGTTVTVSS", "VL": "not shown"}, "B20": {"name": "YANG-2303 (antibody, V domains shown)", "VH": "QVQLVQSGAEVKKPGASVRVSCKVSGYTLPELAIHWVRQAPGKGLEWMGGFDPEDGETIYAQKFQGRVIMTEDTSTDTAYMDLSSLRSEDTAVYYCVKTWAAPGYNYGLDTWGQGTTVTVSS", "VL": "EIVLTQSPGILSLSPGESATLSCRASQSIASNYLAWFQQKPGQAPRLLIYGASSRAAGFPDRFSGSGSGTDFTLTIKRLEPEDSAVYYCQHYGSSPCSFGQGTNLEIK"}, "B21": {"name": "YANG-2304 (antibody, V domains shown)", "VH": "QVQLVQSGTEVKKPGASVKVSCKVSGYTLPELAIHWVRQAPGKGLEWMGTFDPEDGETICAQKFQGRVTMTEDTSTDTAYMDLSSLRSEDTAVYYCATTSIIAARWWFDPWGQGTLVTVSS", "VL": "QSALTQPPSASGSPGQSVTISCTGTSSDVGGYDYVSWYQQHPGKAPKLMIYEVSKRPSGVPDRFSGSKSGNTASLTVSGLQAEDEADYYCSSFAGSNNVVFGGGAKLTVL"}, "B22": {"name": "YANG-2306 (antibody, V domains shown)", "VH": "QVQLVQSGAEVKKPGASVKVSCKVSGYTLPEISIHWVRQAPGKGLEWMGGFDPEDGETIYAQKFQGRVIMTEDTSTDTAYMDLSSLRSEDTAVYFCAAAPAIASASTFWLDPWGQGTLVTVST", "VL": "B21 VL with D33N, S54T, G70D, F93Y, V99L, A105T"}, "B23": {"name": "YANG-1112 (antibody, V domains shown)", "VH": "QITLKESGPTLVKPTQTLTLTCTFSGFSLSTGGVAVGWIRQPPGKALEWLAIIYWDDDKRYSPSLKSRLTITKDTSKNQVVLTMTNMDPVDTATYYCAHWGKDSFDIWGQGTMVTVSS", "VL": "SYELTQPPSVSVSPGQTARITCSGDALPRKYAYWYQQKSGQAPVLVIYEDNNRPSGIPERFSGSSSGTTATLTVSGAQVEDEADYYCYSTDTSGYVVFGGGTKLTVL"}}, "note": "Numbering of substitutions follows the chain as printed."}
{"target": "T1, S1 subunit of the SARS-CoV-2 spike protein (Sino Biological 40591-V08H), His tag (SARS-CoV-2, UniProt P0DTC2 16-685)", "T1 construct": "domain: S1 subunit", "assay": "not given", "units": {"HTRF deltaF": "deltaF"}}
{"binder": "B1", "HTRF deltaF": -0.4}
{"binder": "B2", "HTRF deltaF": 569}
{"binder": "B3", "HTRF deltaF": 772}
{"binder": "B4", "HTRF deltaF": 617}
{"binder": "B5", "HTRF deltaF": 3050}
{"binder": "B6", "HTRF deltaF": 626}
{"binder": "B7", "HTRF deltaF": 2250}
{"binder": "B8", "HTRF deltaF": 752}
{"binder": "B9", "HTRF deltaF": 1510}
{"binder": "B10", "HTRF deltaF": 378}
{"binder": "B11", "HTRF deltaF": 1280}
{"binder": "B12", "HTRF deltaF": 885}
{"binder": "B13", "HTRF deltaF": -8.9}
{"binder": "B14", "HTRF deltaF": 799}
{"binder": "B15", "HTRF deltaF": 755}
{"binder": "B16", "HTRF deltaF": -5.8}
{"binder": "B17", "HTRF deltaF": 929}
{"binder": "B18", "HTRF deltaF": 1030}
{"target": "full-length stabilised spike trimer protein of SARS-CoV-2 virus (in-house, soluble ECD with trimeris (SARS-CoV-2, UniProt P0DTC2 14-1208; P10104 458-484)", "assay": "not given", "units": {"HTRF deltaF": "deltaF"}}
{"binder": "B1", "HTRF deltaF": 968}
{"binder": "B2", "HTRF deltaF": 403}
{"binder": "B3", "HTRF deltaF": 563}
{"binder": "B4", "HTRF deltaF": 926}
{"binder": "B5", "HTRF deltaF": 1700}
{"binder": "B6", "HTRF deltaF": 557}
{"binder": "B7", "HTRF deltaF": 1410}
{"binder": "B8", "HTRF deltaF": 550}
{"binder": "B9", "HTRF deltaF": 1360}
{"binder": "B10", "HTRF deltaF": 488}
{"binder": "B11", "HTRF deltaF": 962}
{"binder": "B12", "HTRF deltaF": 1060}
{"binder": "B13", "HTRF deltaF": 218}
{"binder": "B14", "HTRF deltaF": 1460}
{"binder": "B15", "HTRF deltaF": 800}
{"binder": "B16", "HTRF deltaF": 483}
{"binder": "B17", "HTRF deltaF": 884}
{"binder": "B18", "HTRF deltaF": 551}
{"target": "SARS-CoV-2 spike protein bearing furin mutation and truncation in retention sequence, presented in t (SARS-CoV-2, UniProt P0DTC2 14-1273)", "assay": "cell-based or functional assay", "units": {"PV neutralisation IC50": "nM", "PV neutralization % (Ab 1 ug/mL)": "%"}}
{"binder": "B19", "PV neutralisation IC50": 0.57, "PV neutralization % (Ab 1 ug/mL)": 64.4}
{"binder": "B20", "PV neutralisation IC50": 0.48, "PV neutralization % (Ab 1 ug/mL)": 58.6}
{"binder": "B21", "PV neutralisation IC50": 0.74, "PV neutralization % (Ab 1 ug/mL)": 52.8}
{"binder": "B22", "PV neutralisation IC50": 0.43, "PV neutralization % (Ab 1 ug/mL)": 60.4}
{"target": "SARS-CoV-2 spike protein bearing furin mutation and truncation in retention sequence, on pseudovirus (SARS-CoV-2, UniProt P0DTC2 14-1255)", "assay": "cell-based or functional assay", "units": {"pseudovirus neutralisation IC50": "nM"}}
{"binder": "B23", "pseudovirus neutralisation IC50": 0.52}
